Data as given in patent US20240192215A1 (E AND S HEALTHCARE, published 2024).
Values belong to the binder of their own block, whether it stands above or below them.

Assays:
Peptide_005 = target: T1, Peptide_005 (human); assay: peptide microarray, head 0.08 ug (text 0.008 ug/mL)
T1 construct: 15-mer on microarray; not native form, recombinant insert region
T1 peptide: ADVHSQHHHHHHHHV
Protocol: (§1) 5, 1, 0.2, 0.04, 0.008 and 0.0016 μg/mL serial dilutions were incubated on a single multi-well microarray slide at 30° C. for 1 hour. The slide includes 21 individual mini-arrays (one mini-array per sample dilution).
(§2) DyLight 650 was used as a label. False-positive binding to a peptide was evaluated by performing one additional control incubation in which only a secondary antibody was applied on the same microarray slide. Before performing each step, the microarrays were washed with a washing buffer.

Peptide_012 [1] = target: T2, Peptide_012 (human); assay: peptide microarray, 0.0016 ug/mL
T2 construct: 15-mer on microarray; not native form, includes recombinant insert region
T2 peptide: HHHHHHHVKQIESKT
Protocol: as §1, §2

Peptide_015 [2] = target: T3, Peptide_015 (human); assay: peptide microarray, 0.0016 ug/mL
T3 construct: 15-mer on microarray; not native form, includes recombinant insert region
T3 peptide: HHHHVKQIESKTAFQ
Protocol: as §1, §2

Peptide_018 [3] = target: T4, Peptide_018 (human); assay: peptide microarray, 0.0016 ug/mL
T4 construct: 15-mer on microarray; not native form, includes recombinant insert region; also called HVKQIESKTAFQEAL
T4 peptide: HVKQIESKTAFQEAL
Protocol: as §1, §2

Peptide_019 [4] = target: T5, Peptide_019 (human); assay: peptide microarray, 0.0016 ug/mL
T5 construct: 15-mer of hTrx1 on microarray
T5 peptide: VKQIESKTAFQEALD
Protocol: as §1, §2

Peptide_021 = target: T6, Peptide_021 (human); assay: peptide microarray, 0.0016 ug/mL
T6 construct: 15-mer of hTrx1 on microarray
T6 peptide: QIESKTAFQEALDAA
Protocol: as §1, §2

Peptide_022 [5] = target: T7, Peptide_022 (human); assay: peptide microarray, 0.0016 ug/mL
T7 construct: 15-mer of hTrx1 on microarray
T7 peptide: IESKTAFQEALDAAG
Protocol: as §1, §2

Peptide_023 = target: T8, Peptide_023 (human); assay: peptide microarray, 0.0016 ug/mL
T8 construct: 15-mer of hTrx1 on microarray
T8 peptide: ESKTAFQEALDAAGD
Protocol: as §1, §2

Peptide_024 [6] = target: T9, Peptide_024 (human); assay: peptide microarray, 0.0016 ug/mL
T9 construct: 15-mer of hTrx1 on microarray
T9 peptide: SKTAFQEALDAAGDK
Protocol: as §1, §2

Peptide_025 [7] = target: T10, Peptide_025 (human); assay: peptide microarray, 0.0016 ug/mL
T10 construct: 15-mer of hTrx1 on microarray
T10 peptide: KTAFQEALDAAGDKL
Protocol: as §1, §2

Peptide_045 [8] = target: T11, Peptide_045 (human); assay: peptide microarray, 0.0016 ug/mL
T11 construct: 15-mer of hTrx1 on microarray
T11 peptide: SATWCGPCKMIKPFF
Protocol: as §1, §2

Peptide_051 = target: T12, Peptide_051 (human); assay: peptide microarray, 0.0016 ug/mL
T12 construct: 15-mer of hTrx1 on microarray
T12 peptide: PCKMIKPFFHSLSEK
Protocol: as §1, §2

Peptide_084 [9] = target: T13, Peptide_084 (human); assay: peptide microarray, 0.0016 ug/mL
T13 construct: 15-mer of hTrx1 on microarray
T13 peptide: SECEVKCMPTFQFFK
Protocol: as §1, §2

Peptide_085 [10] = target: T14, Peptide_085 (human); assay: peptide microarray, 0.0016 ug/mL
T14 construct: 15-mer of hTrx1 on microarray
T14 peptide: ECEVKCMPTFQFFKK
Protocol: as §1, §2

Peptide_086 [11] = target: T15, Peptide_086 (human); assay: peptide microarray, 0.0016 ug/mL
T15 construct: 15-mer of hTrx1 on microarray
T15 peptide: CEVKCMPTFQFFKKG
Protocol: as §1, §2

Peptide_092 [12] = target: T16, Peptide_092 (human); assay: peptide microarray, 0.0016 ug/mL
T16 construct: 15-mer of hTrx1 on microarray
T16 peptide: PTFQFFKKGQKVGEF
Protocol: as §1, §2

Peptide_093 [13] = target: T17, Peptide_093 (human); assay: peptide microarray, 0.0016 ug/mL
T17 construct: 15-mer of hTrx1 on microarray
T17 peptide: TFQFFKKGQKVGEFS
Protocol: as §1, §2

Peptide_094 [14] = target: T18, Peptide_094 (human); assay: peptide microarray, 0.0016 ug/mL
T18 construct: 15-mer of hTrx1 on microarray
T18 peptide: FQFFKKGQKVGEFSG
Protocol: as §1, §2

Peptide_095 [15] = target: T19, Peptide_095 (human); assay: peptide microarray, 0.0016 ug/mL
T19 construct: 15-mer of hTrx1 on microarray
T19 peptide: QFFKKGQKVGEFSGA
Protocol: as §1, §2

Peptide_012 [16] = target: T2, Peptide_012; assay: peptide microarray, head 0.08 ug (text 0.008 ug/mL)
Protocol: as §1, §2

Peptide_013 = target: T20, Peptide_013 (human); assay: as above
T20 construct: 15-mer on microarray; not native form, includes recombinant insert region
T20 peptide: HHHHHHVKQIESKTA
Protocol: as §1, §2

Peptide_014 = target: T21, Peptide_014 (human); assay: as above
T21 construct: 15-mer on microarray; not native form, includes recombinant insert region
T21 peptide: HHHHHVKQIESKTAF
Protocol: as §1, §2

Peptide_015 [17] = target: T3, Peptide_015; assay: as above
Protocol: as §1, §2

Peptide_018 [18] = target: T4, Peptide_018; assay: as above
Protocol: as §1, §2

Peptide_019 [19] = target: T5, Peptide_019; assay: as above
Protocol: as §1, §2

Peptide_020 = target: T22, Peptide_020 (human); assay: as above
T22 construct: 15-mer of hTrx1 on microarray
T22 peptide: KQIESKTAFQEALDA
Protocol: as §1, §2

Peptide_022 [20] = target: T7, Peptide_022; assay: as above
Protocol: as §1, §2

Peptide_024 [21] = target: T9, Peptide_024; assay: as above
Protocol: as §1, §2

Peptide_025 [22] = target: T10, Peptide_025; assay: as above
Protocol: as §1, §2

Peptide_045 [23] = target: T11, Peptide_045; assay: as above
Protocol: as §1, §2

Peptide_084 [24] = target: T13, Peptide_084; assay: as above
Protocol: as §1, §2

Peptide_085 [25] = target: T14, Peptide_085; assay: as above
Protocol: as §1, §2

Peptide_086 [26] = target: T15, Peptide_086; assay: as above
Protocol: as §1, §2

Peptide_092 [27] = target: T16, Peptide_092; assay: as above
Protocol: as §1, §2

Peptide_093 [28] = target: T17, Peptide_093; assay: as above
Protocol: as §1, §2

Peptide_094 [29] = target: T18, Peptide_094; assay: as above
Protocol: as §1, §2

Peptide_095 [30] = target: T19, Peptide_095; assay: as above
Protocol: as §1, §2

signal (blank-control = 1) (Peptide_005): 1.28
B1: monoclonal antibody B266-1 (antibody, human IgG1)
light: QIVLTQSPAIMSASPGEKVTMTCSASSRISYMYWYQQKPGTSPKRWIYDTSKLASGVPARFSGSGSGTSYSLTISTMEAEDAATYYCHQRSSYPTFGAGTKLELKSVAAPSVFIFPPSDEQLKSGTASVVCLLNNFYPREAKVQWKVDNALQSGNSQESVTEQDSKDSTYSLSSTLTLSKADYEKHKVYACEVTHQGLSSPVTKSFNRGEC
heavy: not shown
notes: B266 with the Fc part changed to human IgG1; also called B266-1 (Trx1-hIgG1); B266-1 (hTrx1-hIgG1)

signal (blank-control = 1) (Peptide_012 [1]): 0.81
signal (blank-control = 1) (Peptide_015 [2]): 0.58
signal (blank-control = 1) (Peptide_018 [3]): 0.68
signal (blank-control = 1) (Peptide_019 [4]): 0.85
signal (blank-control = 1) (Peptide_021): 0.73
signal (blank-control = 1) (Peptide_022 [5]): 0.72
signal (blank-control = 1) (Peptide_023): 0.78
signal (blank-control = 1) (Peptide_024 [6]): 0.72
signal (blank-control = 1) (Peptide_025 [7]): 0.88
signal (blank-control = 1) (Peptide_045 [8]): 4.08
signal (blank-control = 1) (Peptide_051): 0.58
signal (blank-control = 1) (Peptide_084 [9]): 0.97
signal (blank-control = 1) (Peptide_085 [10]): 0.65
signal (blank-control = 1) (Peptide_086 [11]): 0.82
signal (blank-control = 1) (Peptide_092 [12]): 1.86
signal (blank-control = 1) (Peptide_093 [13]): 1.12
signal (blank-control = 1) (Peptide_094 [14]): 0.62
signal (blank-control = 1) (Peptide_095 [15]): 1.07
signal (blank-control = 1) (Peptide_012 [16]): 0.88
signal (blank-control = 1) (Peptide_013): 0.95
signal (blank-control = 1) (Peptide_014): 1.14
signal (blank-control = 1) (Peptide_015 [17]): 0.79
signal (blank-control = 1) (Peptide_018 [18]): 0.85
signal (blank-control = 1) (Peptide_019 [19]): 1.02
signal (blank-control = 1) (Peptide_020): 0.8
signal (blank-control = 1) (Peptide_022 [20]): 1
signal (blank-control = 1) (Peptide_024 [21]): 1
signal (blank-control = 1) (Peptide_025 [22]): 1.03
signal (blank-control = 1) (Peptide_045 [23]): 5.89
signal (blank-control = 1) (Peptide_084 [24]): 1.33
signal (blank-control = 1) (Peptide_085 [25]): 0.9
signal (blank-control = 1) (Peptide_086 [26]): 1.02
signal (blank-control = 1) (Peptide_092 [27]): 3.07
signal (blank-control = 1) (Peptide_093 [28]): 1.53
signal (blank-control = 1) (Peptide_094 [29]): 1
signal (blank-control = 1) (Peptide_095 [30]): 1.15
B2: monoclonal antibody B264 (antibody, mouse IgG1, kappa, V domains shown)
VH: QVQLQQSGAELARPGASVKMSCKASGYTFTSYTMHWVKQRPGQGLEWIGYINPTSDYTNYNQKFKDKATLTADKSSSTAYMQLSSLTSEDSAVYFCASEGGFLYYFDYWGQGTTLTVSS
VL: DVLMTQTPLSLPVSLGDQASISCRSSQSIVHSNGNTYLEWYLQKPGQSPKLLIYKVSNRFSGVPDRFSGSGSGTDFTLKISRVEAEDLGVYYCFQGSHVPYTFGGGTKLEIKR
notes: also called AB264; B264 (Trx1-mIgG1)
